# In paper PMC8892085, “Molecular insights into the interaction between human nicotinamide phosphoribosyltransferase and Toll-like receptor 4” (The Journal of Biological Chemistry, 2022):
# Changes are numbered by the printed parent chain.
# B1: NAMPT β-loop deletion mutant Δ(42>51) (enzyme, human)
# chain: MNPAAEAEFNILLATDSYKVTHYKQYPPNTSKVYSYFECREVKYEETVFYGLQYILNKYLKGKVVTKEKIQEAKDVYKEHFQDDVFNEKGWNYILEKYDGHLPIEIKAVPEGFVIPRGNVLFTVENTDPECYWLTNWIETILVQSWYPITVATNSREQKKILAKYLLETSGNLDGLEYKLHDFGYRGVSSQETAGIGASAHLVNFKGTDTVAGLALIKKYYGTKDPVPGYSVPAAEHSTITAWGKDHEKDAFEHIVTQFSSVPVSVVSDSYDIYNACEKIWGEDLRHLIVSRSTQAPLIIRPDSGNPLDTVLKVLEILGKKFPVTENSKGYKLLPPYLRVIQGDGVDINTLQEIVEGMKQKMWSIENIAFGSGGGLLQKLTRDLLNCSFKCSYVVTNGLGINVFKDPVADPNKRSKKGRLSLHRTPAGNFVTLEEGKGDLEEYGQDLLHTVFKNGKVTKSYSFDEIRKNAQLNIELEAAHH
# notes: nicotinamide phosphoribosyltransferase (NAMPT), human, UniProt P43490; pET15b plasmid changed with the In-Fusion kit; the β1-β2 K-rich loop fully deleted; also called ΔK(42>51); β-loop deleted mutant; source: ClearColi BL21 (DE3), purified (Ni-NTA, PD10; ε-poly-L-lysine resin to remove endotoxin)
# B2: human nicotinamide phosphoribosyltransferase (NAMPT), wildtype (enzyme)
# chain: MNPAAEAEFNILLATDSYKVTHYKQYPPNTSKVYSYFECREKKTENSKLRKVKYEETVFYGLQYILNKYLKGKVVTKEKIQEAKDVYKEHFQDDVFNEKGWNYILEKYDGHLPIEIKAVPEGFVIPRGNVLFTVENTDPECYWLTNWIETILVQSWYPITVATNSREQKKILAKYLLETSGNLDGLEYKLHDFGYRGVSSQETAGIGASAHLVNFKGTDTVAGLALIKKYYGTKDPVPGYSVPAAEHSTITAWGKDHEKDAFEHIVTQFSSVPVSVVSDSYDIYNACEKIWGEDLRHLIVSRSTQAPLIIRPDSGNPLDTVLKVLEILGKKFPVTENSKGYKLLPPYLRVIQGDGVDINTLQEIVEGMKQKMWSIENIAFGSGGGLLQKLTRDLLNCSFKCSYVVTNGLGINVFKDPVADPNKRSKKGRLSLHRTPAGNFVTLEEGKGDLEEYGQDLLHTVFKNGKVTKSYSFDEIRKNAQLNIELEAAHH
# notes: nicotinamide phosphoribosyltransferase (NAMPT), human, UniProt P43490; also called WT; HsNAMPT; source: ClearColi BL21 (DE3), purified (Ni-NTA, PD10; ε-poly-L-lysine resin to remove endotoxin)
# B3: NAMPT β-loop double mutant K(42/48)A (enzyme, human)
# chain: B2 chain with K42A, K48A
# notes: nicotinamide phosphoribosyltransferase (NAMPT), human, UniProt P43490; mutagenised pET15b plasmid; K42 and K48 replaced with alanine; source: ClearColi BL21 (DE3), purified (Ni-NTA, PD10; ε-poly-L-lysine resin to remove endotoxin)
# B4: NAMPT α-loop triple mutant K(68>73)A (enzyme, human)
# chain: B2 chain with K68A, K71A, K73A
# notes: nicotinamide phosphoribosyltransferase (NAMPT), human, UniProt P43490; mutagenised pET15b plasmid; source: ClearColi BL21 (DE3), purified (Ni-NTA, PD10; ε-poly-L-lysine resin to remove endotoxin)
# B5: NAMPT α-loop double mutant K(68/71)S (enzyme, human)
# chain: B2 chain with K68S, K71S
# notes: nicotinamide phosphoribosyltransferase (NAMPT), human, UniProt P43490; mutagenised pET15b plasmid; K68 and K71 replaced with serine; source: ClearColi BL21 (DE3), purified (Ni-NTA, PD10; ε-poly-L-lysine resin to remove endotoxin)
# B6: NAMPT β-loop full mutant K/R(42>51)A (enzyme, human)
# chain: B2 chain with K42A, K43A, K48A, R50A, K51A
# notes: nicotinamide phosphoribosyltransferase (NAMPT), human, UniProt P43490; mutagenised pET15b plasmid; the entire set of positive residues of the β1-β2 K-rich loop (residues 42-51) replaced with alanine; source: ClearColi BL21 (DE3), purified (Ni-NTA, PD10; ε-poly-L-lysine resin to remove endotoxin)
# Target: T1, Toll-like receptor 4 (TLR4) (human, UniProt O00206 24-629)
# T1 construct: Toll-like receptor 4 (TLR4) from the plasmid pEFBOS-TLR4 (Dr Kensuke Miyake); the introduction speaks of the extracellular domain of TLR4; human TLR4 (AAY82270.1) is named for the docking model; Cells were lysed with 0.3% Triton X-100, which may mean the whole receptor; Anchored to the sensor 'via the N terminus of the histidine tail'; also called biosensor-tethered TLR4
# Assay: SPR; evanescent wave/resonant mirror optical biosensor (IAsys plus), called surface plasmon resonance by the paper; TLR4 covalently anchored (EDC/NHS) to carboxylate cuvettes, 1.3 ng/mm^2; NAMPT proteins soluble, 1 to 3 nM; PBS; 37 °C; monoexponential fit
# Details: both partners purified
# T1 sequence (O00206 24-629): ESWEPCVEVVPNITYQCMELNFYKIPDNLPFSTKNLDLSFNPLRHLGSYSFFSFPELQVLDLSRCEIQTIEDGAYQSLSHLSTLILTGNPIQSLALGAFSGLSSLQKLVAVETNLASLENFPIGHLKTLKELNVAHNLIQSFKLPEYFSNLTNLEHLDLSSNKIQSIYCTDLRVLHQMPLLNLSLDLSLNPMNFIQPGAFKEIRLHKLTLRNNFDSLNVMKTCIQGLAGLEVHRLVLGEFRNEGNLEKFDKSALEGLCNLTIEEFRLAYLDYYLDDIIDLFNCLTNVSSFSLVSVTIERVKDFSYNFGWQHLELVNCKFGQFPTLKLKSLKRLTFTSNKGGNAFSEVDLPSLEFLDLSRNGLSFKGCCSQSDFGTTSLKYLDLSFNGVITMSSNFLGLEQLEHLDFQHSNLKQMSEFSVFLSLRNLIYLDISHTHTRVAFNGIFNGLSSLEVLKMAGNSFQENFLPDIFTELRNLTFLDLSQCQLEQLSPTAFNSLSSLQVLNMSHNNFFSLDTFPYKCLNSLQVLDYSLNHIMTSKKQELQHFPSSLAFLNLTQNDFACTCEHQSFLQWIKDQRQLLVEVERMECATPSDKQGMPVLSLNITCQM
Binder,Kd [nM],koff [s⁻¹],kon [M⁻¹ s⁻¹]
B1,218,0.07 ± 0.02,320000
B2,17.8,0.005 ± 0.001,280000
B3,37.1,0.029 ± 0.003,780000
B4,1280,0.004 ± 0.002,3100
B5,20.8,0.01 ± 0.004,480000
B6,630,0.085 ± 0.023,130000

# Target: the molecule itself
# Assay: SEC; Superose 12 10/300 GL, 50 mM Hepes pH 7.5, 0.3 M NaCl; proteins loaded at 0.9 mg/ml; standards BSA, ovalbumin, carbonic anhydrase
# Details: not given
row,Binder,stoichiometry N
1,B1,2
2,B2,2
3,B3,2
4,B4,2
5,B5,2
6,B6,2
